According to patent US20260199522:

Target: purified C3b (Complement Technology, Inc. #A114), P01024
Sequence (P01024 whole entry, looked up): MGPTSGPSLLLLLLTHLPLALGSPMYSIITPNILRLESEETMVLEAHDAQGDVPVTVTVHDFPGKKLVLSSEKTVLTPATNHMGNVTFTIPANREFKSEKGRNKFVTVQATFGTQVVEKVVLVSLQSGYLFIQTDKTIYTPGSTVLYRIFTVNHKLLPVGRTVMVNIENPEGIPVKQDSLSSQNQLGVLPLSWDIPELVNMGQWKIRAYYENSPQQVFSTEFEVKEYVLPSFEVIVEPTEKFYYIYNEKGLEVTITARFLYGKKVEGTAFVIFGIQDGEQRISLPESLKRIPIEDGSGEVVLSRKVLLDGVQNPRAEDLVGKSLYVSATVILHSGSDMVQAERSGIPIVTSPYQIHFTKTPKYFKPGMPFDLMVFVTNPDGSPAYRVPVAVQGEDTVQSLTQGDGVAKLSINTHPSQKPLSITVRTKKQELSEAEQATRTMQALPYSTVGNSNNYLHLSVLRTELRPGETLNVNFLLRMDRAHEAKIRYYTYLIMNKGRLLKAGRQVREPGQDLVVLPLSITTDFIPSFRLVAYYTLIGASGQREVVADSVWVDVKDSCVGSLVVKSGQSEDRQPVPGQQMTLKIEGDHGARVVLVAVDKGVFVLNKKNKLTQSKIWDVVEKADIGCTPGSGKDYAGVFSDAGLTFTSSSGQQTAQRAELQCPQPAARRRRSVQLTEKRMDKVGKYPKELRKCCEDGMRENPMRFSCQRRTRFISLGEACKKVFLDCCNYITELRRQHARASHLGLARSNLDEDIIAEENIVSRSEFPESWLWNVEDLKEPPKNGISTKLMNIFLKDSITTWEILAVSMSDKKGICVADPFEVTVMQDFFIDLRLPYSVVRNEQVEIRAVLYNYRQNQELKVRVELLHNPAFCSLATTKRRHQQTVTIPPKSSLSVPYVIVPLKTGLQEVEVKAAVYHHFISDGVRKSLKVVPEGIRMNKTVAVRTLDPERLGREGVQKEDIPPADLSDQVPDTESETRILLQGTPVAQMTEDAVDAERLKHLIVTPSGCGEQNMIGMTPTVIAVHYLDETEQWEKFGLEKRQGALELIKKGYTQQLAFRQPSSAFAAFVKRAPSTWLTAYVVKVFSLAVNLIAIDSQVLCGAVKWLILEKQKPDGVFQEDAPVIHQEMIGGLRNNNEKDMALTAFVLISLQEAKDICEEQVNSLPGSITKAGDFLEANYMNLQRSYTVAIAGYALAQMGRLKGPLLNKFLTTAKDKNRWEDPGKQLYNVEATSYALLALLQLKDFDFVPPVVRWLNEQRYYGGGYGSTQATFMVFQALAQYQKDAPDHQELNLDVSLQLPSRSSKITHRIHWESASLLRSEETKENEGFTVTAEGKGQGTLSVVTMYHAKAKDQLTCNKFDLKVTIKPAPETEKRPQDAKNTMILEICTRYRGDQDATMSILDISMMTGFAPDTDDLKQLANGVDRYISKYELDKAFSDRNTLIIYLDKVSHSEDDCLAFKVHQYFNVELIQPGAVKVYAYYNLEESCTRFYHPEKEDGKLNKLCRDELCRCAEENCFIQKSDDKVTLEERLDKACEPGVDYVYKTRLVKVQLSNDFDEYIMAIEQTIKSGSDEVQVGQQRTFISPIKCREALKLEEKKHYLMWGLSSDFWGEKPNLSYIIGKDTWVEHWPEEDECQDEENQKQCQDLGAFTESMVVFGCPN

B1: human Complement Factor I (hCFI) expressed from the AAV-CFI-1.0 vector, secreted into cell media of transduced rabbit retinal explants (protein)
chain: KVTYTSQEDLVEKKCLAKKYTHLSCDKVFCQPWQRCIEGTCVCKLPYQCPKNGTAVCATNRRSFPTYCQQKSLECLHPGTKFLNNGTCTAEGKFSVSLKHGNTDSEGIVEVKLVDQDKTMFICKSSWSMREANVACLDLGFQQGADTQRRFKLSDLSINSTECLHVHCRGLETSLAECTFTKRRTMGYQDFADVVCYTQKADSPMDDFFQCVNGKYISQMKACDGINDCGDQSDELCCKACQGKGFHCKSGVCIPSQYQCNGEVDCITGEDEVGCAGFASVTQEETEILTADMDAERRRIKSLLPKLSCGVKNRMHIRRKRIVGGKRAQLGDLPWQVAIKDASGITCGGIYIGGCWILTAAHCLRASKTHRYQIWTTVVDWIHPDLKRIVIEYVDRIIFHENYNAGTYQNDIALIEMKKDGNKKDCELPRSIPACVPWSPYLFQPNDTCIVSGWGREKDNERVFSLQWGEVKLISNCSKFYGNRFYEKEMECAGTYDGSIDACKGDSGGPLVCMDANNVTYVWGVVSWGENCGKPEFPGVYTKVANYFDWISYHVGRPFISQYNV
  C3b cleavage assay (Western blot stained with anti-C3 antibody; appearance of iC3b 68 kDa and 43 kDa bands), in the presence of purified CFH: The iC3b 43 kDa polypeptide is present in all lanes containing cell media from rabbit explants transduced with AAV-CFI-1.0 package into either AAV2.7m8 or AAV2.5T-LSV1 capsid serotypes
